Tests used:
[1] = Example 5: safety and tolerability; details: 4-CNAB alone, oral 400-2000 mg
Description: (§1) Safety assessments included physical examinations, medical history, vital signs, 12-lead electrocardiogram (ECG) monitoring, laboratory evaluations and checking for adverse events. Activity parameters included blood glucose, insulin, C-peptide, and 4-CNAB plasma concentration measurements.
Example 6: safety = assay: Example 6: safety; set-up: species or system human; details: in vivo
Protocol: Safety was monitored by vital sign measurements and documentation of adverse events (AE) during all visits throughout the study.
Safety data included AEs, laboratory data, vital signs, physical examinations, and ECGs. Vital signs (systolic and diastolic blood pressure, respiration rate, heart rate, and body temperature) for each treatment group were summarized at baseline (defined as the −30 min time point) and at the end of each study day.

[2] = in vivo, sc
Description: as §1

[3] = monkey, in vivo

In the case of `O=C(O)CCCNC(=O)c1ccc(Cl)cc1O` [4-CNAB, 4-[(4-chloro, 2-hydroxybenzoyl)amino]butanoic acid], the Tolerability [1] is reported as “well tolerated”.
For “SC insulin: human regular insulin injected subcutaneously (Humulin R or equivalent; Calbiochem insulin in the rat studies)”, the “Adverse events / tolerability” value (Example 6: safety) was “No adverse events were observed”, the “Hypoglycemia occasions requiring rescue treatment” value [2] was “twelve” and the Treatment-related adverse events [2] was “sixteen events”.
With “oral insulin alone: recombinant human zinc insulin given orally without delivery agent” the “Absolute bioavailability of insulin” value [3] was at most 1%.

From patent US7429564B2, “Oral insulin therapy” (Emisphere Technologies, Inc., priority 2002, dated 2008)
